T1: SOX2 peptide on HLA-A*02:01 (human)
T1 peptide: YLPGAEVPEPA


Biological target: T1, SOX2 peptide on HLA-A*02:01
Experiment: multimer staining
Experimental: Methods: TCR expression vectors were sequenced after Gibson assembly to confirm successful insertion of the TCR expression cassettes into the pRRLSIN vector. Lentiviral particles were generated using the 293T/17 packaging cell line and the Effectene kit (Qiagen). CD8⁺ T cells were isolated from a healthy donor (18648) using negative magnetic separation (Easy Sep Kit, […] Technologies), stimulated for 4 hours with anti-CD3/CD28 beads (Dynabeads), and transduced with SOX2-TCR-encoding lentiviral particles collected from 293T/17 cells. Transduced CD8⁺ T cells were assessed for tetramer staining on day 5 post transduction. SOX2-TCR⁺ CD8⁺ T cells are sorted for rapid expansion, and assessed for response to different peptide concentrations, and target killing.

Binder	binding result
SOX2 TCR #05 (TCR, V domains shown) Valpha: AQKITQTQPGMFVQEKEAVTLDCTYDTSDPSYGLFWYKQPSSGEMIFLIYQGSYDQQNATEGRYSLNFQKARKSANLVISASQLGDSAMYFCAMREGMGFQKLVFGTGTRLLVSP Vbeta: DVKVTQSSRYLVKRTGEKVFLECVQDMDHENMFWYRQDPGLGLRLIYFSYDVKMKEKGDIPEGYSVSREKKERFSLILESASTNQTSMYLCASRPEMGGRGNQPQHFGDGTRLSIL	recognises
SOX2 TCR #10 (TCR, V domains shown) Valpha: GEDVEQSLFLSVREGDSSVINCTYTDSSSTYLYWYKQEPGAGLQLLTYIFSNMDMKQDQRLTVLLNKKDKHLSLRIADTQTGDSAIYFCAGPLGGSQGNLIFGKGTKLSVKP Vbeta: EADIYQTPRYLVIGTGKKITLECSQTMGHDKMYWYQQDPGMELHLIHYSYGVNSTEKGDLSSESTVSRIRTEHFPLTLESARPSHTSQYLCASSRGPEAFFGQGTRLTVV	recognises

From patent US20250018036A1 (published 2025)
